IntAct's records for PubMed 34029587

Experiments:
[1] = target: G3BP1 (UniProt Q13283)
[2] = target: anm1_human PRMT1 (UniProt Q99873)
Sequence of UniProt Q99873 (Q99873 whole entry, looked up): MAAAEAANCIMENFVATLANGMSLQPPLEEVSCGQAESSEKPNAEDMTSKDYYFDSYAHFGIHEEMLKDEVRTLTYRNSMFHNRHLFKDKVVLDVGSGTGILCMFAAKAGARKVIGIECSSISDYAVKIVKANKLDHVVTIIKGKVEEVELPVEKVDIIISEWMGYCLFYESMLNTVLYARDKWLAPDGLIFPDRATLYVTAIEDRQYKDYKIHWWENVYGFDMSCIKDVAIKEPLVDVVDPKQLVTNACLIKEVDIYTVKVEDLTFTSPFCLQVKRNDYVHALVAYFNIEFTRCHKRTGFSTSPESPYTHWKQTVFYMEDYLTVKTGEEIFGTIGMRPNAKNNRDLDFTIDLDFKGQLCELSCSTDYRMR

Sequence of UniProt Q13283 (Q13283 whole entry, looked up): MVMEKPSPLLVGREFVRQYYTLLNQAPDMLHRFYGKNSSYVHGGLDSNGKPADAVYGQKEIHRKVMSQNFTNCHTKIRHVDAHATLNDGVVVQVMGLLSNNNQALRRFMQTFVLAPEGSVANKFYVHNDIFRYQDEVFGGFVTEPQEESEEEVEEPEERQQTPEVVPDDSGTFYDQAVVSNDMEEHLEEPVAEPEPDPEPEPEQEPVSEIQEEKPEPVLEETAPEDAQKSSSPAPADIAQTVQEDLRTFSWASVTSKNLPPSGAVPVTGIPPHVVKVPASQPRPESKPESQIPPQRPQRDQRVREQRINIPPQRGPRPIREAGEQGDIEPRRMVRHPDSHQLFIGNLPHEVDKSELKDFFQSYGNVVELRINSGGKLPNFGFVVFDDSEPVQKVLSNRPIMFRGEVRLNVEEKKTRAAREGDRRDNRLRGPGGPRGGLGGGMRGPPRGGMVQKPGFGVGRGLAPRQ

“Nucleoprotein (SARS-CoV-2) (from UniProt P0DTC9) R177K” was tested, and the “effect of a mutation on the interaction” value [1] was “with no effect”.

With “Nucleoprotein (SARS-CoV-2) (from UniProt P0DTC9) R203K” the “effect of a mutation on the interaction” value [2] was “with no effect”.

For “Nucleoprotein (SARS-CoV-2) (from UniProt P0DTC9) R68K”, the “effect of a mutation on the interaction” value [2] was “with no effect”.
